In US20240261333A1, “NOVEL TARGETS FOR ENHANCING ANTI-TUMOR IMMUNITY” (THE BROAD INSTITUTE, INC., priority 2021, published 2024) one finds co-IP/MS count and co-IP mass spectrometry count data, which are given here for 2 substances.

In assay [1] the target is NCL (UniProt P19338). The assay can be described thus: co-IP, anti-FLAG, lysate of C-FLAG B3GNT2 cells, mass spectrometry.
Assay [2] concerns the target CSPG4 (UniProt Q6UVK1). The assay is described as above.
Assay [3] deals with RPL29 (UniProt P47914). The description is as above.
Assay [4] addresses RPL18A (UniProt Q02543). The description is as above.
Assay [5] concerns the target ABCF1 (UniProt Q8NE71). Described as above.
The target of assay [6] is SLC25A1 (UniProt P53007). The assay is described as above.
Assay [7] addresses MAP1B (UniProt P46821). The description is as above.
The target in assay [8] is TM9SF3 (UniProt Q9HD45). The assay is described as above.
For assay [9], the target named is SLC25A3 (UniProt Q00325). The assay is described as above.
Assay [10] deals with RNASE1 (UniProt P07998). Described as above.
Assay [11] deals with CNP (UniProt P09543). The description is as above.
Assay [12] concerns the target PPIB (UniProt P23284). The assay is described as above.
Assay [13] deals with HSPA5 (UniProt P11021). Described as above.
The target in assay [14] is ARPC2 (UniProt O15144). The description is as above.
In assay [15] the target is LAMB1 (UniProt P07942). The description is as above.
The target of assay [16] is LOXL4 (UniProt Q96JB6). The description is as above.
For assay [17], the target named is SERPINE2 (UniProt P07093). The assay is described as above.
Assay [18] addresses DPM1 (UniProt O60762). The assay is described as above.
The target in assay [19] is HSPH1 (UniProt Q92598). The description is as above.
Assay [20] addresses RAB1B (UniProt Q9H0U4). Described as above.
Assay [21] addresses LRP2 (UniProt P98164). The description is as above.
Assay [22] concerns the target CALM2 (UniProt P0DP24). Described as above.
Assay [23] concerns the target PGK1 (UniProt P00558). The description is as above.
In assay [24] the target is RBMX (UniProt P38159). Described as above.
Assay [25] addresses SMN1 (UniProt Q16637). The description is as above.
Assay [26] has as its target OS9 (UniProt Q13438). The assay is described as above.
Assay [27] concerns the target NPM1 (human) (UniProt P06748). Briefly: co-IP with control IgG, mass spectrometry; lysate of cells with N-FLAG B3GNT2.
For assay [28], the target named is RPL26 (human) (UniProt P61254). The assay is described as above.
The target in assay [29] is IPO13 (human) (UniProt O94829). Described as above.
Assay [30] deals with GAPDH (human) (UniProt P04406). The description is as above.
The target of assay [31] is MARS (human) (UniProt P56192). Described as above.
For assay [32], the target named is RPL32 (human) (UniProt P62910). Described as above.
For assay [33], the target named is HADHA (human) (UniProt P40939). The assay is described as above.
Assay [34] deals with GANAB (human) (UniProt Q14697). Described as above.
Assay [35] concerns the target SEL1L (human) (UniProt Q9UBV2). The description is as above.
Assay [36] has as its target ARF4 (human) (UniProt P18085). Described as above.
Assay [37] addresses ILF3 (human) (UniProt Q12906). The assay is described as above.
Assay [38] concerns the target RPS4X (human) (UniProt P62701). The description is as above.

Chain of LAMB1 (P07942 22-1786 limits assumed): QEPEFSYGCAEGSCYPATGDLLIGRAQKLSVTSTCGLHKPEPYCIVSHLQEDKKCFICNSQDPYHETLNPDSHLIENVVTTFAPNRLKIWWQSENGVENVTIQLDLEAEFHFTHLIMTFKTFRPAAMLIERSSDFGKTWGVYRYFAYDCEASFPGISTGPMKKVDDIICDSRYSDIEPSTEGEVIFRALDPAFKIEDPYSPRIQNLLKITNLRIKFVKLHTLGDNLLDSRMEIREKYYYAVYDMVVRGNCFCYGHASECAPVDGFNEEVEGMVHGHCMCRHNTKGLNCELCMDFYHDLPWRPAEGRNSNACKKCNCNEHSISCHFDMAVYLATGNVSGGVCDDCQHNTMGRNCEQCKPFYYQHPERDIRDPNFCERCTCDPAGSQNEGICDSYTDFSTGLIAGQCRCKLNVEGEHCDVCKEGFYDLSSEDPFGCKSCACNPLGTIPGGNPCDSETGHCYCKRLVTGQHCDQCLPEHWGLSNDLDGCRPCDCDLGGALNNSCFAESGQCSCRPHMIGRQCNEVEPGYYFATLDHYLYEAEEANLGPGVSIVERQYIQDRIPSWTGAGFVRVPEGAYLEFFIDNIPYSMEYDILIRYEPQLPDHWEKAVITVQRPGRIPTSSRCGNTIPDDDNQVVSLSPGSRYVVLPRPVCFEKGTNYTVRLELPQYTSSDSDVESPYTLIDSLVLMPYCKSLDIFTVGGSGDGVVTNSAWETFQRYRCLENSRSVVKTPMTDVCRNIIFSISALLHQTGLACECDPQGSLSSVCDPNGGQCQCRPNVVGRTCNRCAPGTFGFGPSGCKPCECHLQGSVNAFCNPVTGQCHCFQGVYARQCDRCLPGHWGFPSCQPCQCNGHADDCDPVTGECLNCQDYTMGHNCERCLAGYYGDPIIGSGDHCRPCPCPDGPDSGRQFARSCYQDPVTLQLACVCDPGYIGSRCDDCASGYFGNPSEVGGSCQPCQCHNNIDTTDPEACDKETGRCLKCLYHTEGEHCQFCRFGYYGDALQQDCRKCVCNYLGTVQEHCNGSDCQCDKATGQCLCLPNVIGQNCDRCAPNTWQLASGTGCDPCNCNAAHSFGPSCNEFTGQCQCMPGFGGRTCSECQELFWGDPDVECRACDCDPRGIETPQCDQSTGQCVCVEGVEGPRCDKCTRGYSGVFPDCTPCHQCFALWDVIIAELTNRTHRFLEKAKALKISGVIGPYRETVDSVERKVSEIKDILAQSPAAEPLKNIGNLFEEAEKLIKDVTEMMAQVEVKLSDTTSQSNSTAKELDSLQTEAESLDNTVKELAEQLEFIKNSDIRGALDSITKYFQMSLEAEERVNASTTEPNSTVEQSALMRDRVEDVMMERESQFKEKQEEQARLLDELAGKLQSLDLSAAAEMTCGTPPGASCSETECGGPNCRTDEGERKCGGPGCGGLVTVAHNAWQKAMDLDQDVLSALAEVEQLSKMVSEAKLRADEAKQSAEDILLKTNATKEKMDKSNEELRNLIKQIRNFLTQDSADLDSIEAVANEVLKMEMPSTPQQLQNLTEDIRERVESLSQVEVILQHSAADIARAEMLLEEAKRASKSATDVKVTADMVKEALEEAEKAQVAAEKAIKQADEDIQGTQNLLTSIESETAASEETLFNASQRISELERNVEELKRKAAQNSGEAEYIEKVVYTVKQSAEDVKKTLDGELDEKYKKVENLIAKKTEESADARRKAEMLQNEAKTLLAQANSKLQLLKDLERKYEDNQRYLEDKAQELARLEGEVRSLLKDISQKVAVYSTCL
Chain of PPIB (P23284 34-216 limits assumed): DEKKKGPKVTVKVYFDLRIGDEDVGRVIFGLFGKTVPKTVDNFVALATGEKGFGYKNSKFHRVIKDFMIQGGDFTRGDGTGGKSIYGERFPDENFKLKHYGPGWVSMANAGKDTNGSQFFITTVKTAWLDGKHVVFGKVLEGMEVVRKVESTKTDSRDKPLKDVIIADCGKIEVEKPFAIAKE
Chain of OS9 (Q13438 other isoform, or with tags, fused parts or gaps limits assumed): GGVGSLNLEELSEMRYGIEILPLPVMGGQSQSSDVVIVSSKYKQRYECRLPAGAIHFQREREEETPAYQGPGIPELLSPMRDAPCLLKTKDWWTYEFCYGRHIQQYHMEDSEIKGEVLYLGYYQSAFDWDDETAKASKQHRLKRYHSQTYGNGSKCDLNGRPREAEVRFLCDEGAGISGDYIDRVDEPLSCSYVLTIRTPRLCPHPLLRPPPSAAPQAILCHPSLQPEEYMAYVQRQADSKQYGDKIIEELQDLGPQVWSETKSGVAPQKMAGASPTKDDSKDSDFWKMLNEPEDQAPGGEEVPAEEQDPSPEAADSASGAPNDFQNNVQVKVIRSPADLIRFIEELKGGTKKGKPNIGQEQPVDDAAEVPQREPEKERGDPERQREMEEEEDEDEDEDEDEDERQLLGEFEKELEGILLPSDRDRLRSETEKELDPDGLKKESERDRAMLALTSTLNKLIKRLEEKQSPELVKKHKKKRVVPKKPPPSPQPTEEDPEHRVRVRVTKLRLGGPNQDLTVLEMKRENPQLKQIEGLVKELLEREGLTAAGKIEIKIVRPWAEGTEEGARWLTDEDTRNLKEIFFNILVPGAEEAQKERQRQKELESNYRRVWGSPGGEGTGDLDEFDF
Chain of SEL1L (human) (Q9UBV2 22-794 limits assumed): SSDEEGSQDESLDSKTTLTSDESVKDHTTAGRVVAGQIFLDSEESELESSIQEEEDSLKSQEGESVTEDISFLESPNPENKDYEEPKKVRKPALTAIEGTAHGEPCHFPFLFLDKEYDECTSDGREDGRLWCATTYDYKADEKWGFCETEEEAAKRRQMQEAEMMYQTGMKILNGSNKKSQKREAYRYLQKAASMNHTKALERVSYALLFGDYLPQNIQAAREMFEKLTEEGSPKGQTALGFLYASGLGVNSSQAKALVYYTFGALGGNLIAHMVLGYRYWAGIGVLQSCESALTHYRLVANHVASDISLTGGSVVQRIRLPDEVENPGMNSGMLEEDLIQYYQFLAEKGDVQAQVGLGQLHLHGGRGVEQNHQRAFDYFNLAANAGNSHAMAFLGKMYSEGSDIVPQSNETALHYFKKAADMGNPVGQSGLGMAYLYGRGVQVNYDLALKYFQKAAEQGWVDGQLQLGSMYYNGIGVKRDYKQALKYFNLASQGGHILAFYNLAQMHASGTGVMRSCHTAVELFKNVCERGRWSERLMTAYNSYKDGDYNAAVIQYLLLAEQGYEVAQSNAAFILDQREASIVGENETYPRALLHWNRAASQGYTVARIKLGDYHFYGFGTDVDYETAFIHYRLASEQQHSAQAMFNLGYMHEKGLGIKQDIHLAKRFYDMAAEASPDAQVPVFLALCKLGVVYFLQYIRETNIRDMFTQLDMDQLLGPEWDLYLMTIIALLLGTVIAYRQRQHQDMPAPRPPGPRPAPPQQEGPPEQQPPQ
Chain of NCL (P19338 2-710 limits assumed): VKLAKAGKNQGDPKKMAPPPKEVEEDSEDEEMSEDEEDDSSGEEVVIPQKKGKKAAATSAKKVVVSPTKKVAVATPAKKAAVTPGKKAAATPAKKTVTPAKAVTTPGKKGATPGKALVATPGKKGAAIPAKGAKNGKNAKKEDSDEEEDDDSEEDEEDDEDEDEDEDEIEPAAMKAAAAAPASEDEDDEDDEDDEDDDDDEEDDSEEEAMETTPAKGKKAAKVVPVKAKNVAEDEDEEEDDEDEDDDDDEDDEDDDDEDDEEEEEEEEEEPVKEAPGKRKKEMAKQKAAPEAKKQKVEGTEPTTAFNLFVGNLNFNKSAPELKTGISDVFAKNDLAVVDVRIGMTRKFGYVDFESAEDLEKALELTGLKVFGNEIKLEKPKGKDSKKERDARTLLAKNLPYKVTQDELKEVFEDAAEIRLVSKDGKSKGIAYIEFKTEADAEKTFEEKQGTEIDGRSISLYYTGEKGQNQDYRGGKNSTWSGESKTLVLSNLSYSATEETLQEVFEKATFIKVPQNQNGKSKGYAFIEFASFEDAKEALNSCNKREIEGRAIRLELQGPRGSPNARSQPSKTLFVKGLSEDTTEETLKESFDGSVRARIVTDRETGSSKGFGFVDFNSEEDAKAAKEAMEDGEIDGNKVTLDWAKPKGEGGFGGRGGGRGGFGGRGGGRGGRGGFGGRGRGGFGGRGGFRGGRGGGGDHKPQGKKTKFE
Chain of ARF4 (human) (P18085 2-180 limits assumed): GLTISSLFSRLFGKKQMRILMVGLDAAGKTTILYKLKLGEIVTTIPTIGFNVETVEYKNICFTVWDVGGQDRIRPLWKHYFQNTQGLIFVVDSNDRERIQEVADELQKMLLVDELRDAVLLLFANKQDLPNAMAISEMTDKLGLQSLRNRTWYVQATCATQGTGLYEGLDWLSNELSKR
Chain of SLC25A3 (Q00325 50-362 limits assumed): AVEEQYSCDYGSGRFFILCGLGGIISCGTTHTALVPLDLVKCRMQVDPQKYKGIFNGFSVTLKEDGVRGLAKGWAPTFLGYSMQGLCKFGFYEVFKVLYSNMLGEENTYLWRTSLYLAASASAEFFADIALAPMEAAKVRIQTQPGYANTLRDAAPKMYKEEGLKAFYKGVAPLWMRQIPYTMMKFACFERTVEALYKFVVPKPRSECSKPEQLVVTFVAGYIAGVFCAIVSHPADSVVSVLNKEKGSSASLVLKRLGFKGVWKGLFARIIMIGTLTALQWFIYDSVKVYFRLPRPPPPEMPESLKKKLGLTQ
Chain of SMN1 (Q16637 other isoform, or with tags, fused parts or gaps limits assumed): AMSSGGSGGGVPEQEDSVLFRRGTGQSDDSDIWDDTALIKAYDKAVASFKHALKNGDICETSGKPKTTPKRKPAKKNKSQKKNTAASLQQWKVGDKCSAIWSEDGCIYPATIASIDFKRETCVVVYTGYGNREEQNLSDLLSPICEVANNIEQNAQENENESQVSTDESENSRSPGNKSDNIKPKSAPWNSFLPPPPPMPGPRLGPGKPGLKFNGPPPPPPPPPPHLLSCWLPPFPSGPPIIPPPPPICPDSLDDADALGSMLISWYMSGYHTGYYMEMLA
Chain of RNASE1 (P07998 29-156 limits assumed): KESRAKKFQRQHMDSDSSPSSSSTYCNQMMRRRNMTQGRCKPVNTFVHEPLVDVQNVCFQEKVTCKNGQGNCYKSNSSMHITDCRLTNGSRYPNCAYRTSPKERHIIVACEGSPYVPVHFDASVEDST

In the case of “C-terminal FLAG tagged B3GNT2 (from UniProt Q9NY97 1-397) (enzyme)”, the co-IP/MS count in assay [1] stood at 11; in [2] it was 12; in [3], 6; in assay [4], 12; in assay [5], 2; in assay [6], 8. The co-IP/MS count in assay [7] came to 2; in assay [8], 11; in assay [9], 9; in assay [10], 2; in assay [11], 7; in [12], 2. For the same substance, the co-IP/MS count in assay [13] is 130; in [14], 2; in assay [15], 2; in [16], 8; in [17] it was 11; in assay [18] it was 8. For the same substance, the co-IP/MS count in assay [19] was determined as 7; in [20], 2; in assay [21], 2; in assay [22], 2; in assay [23], 2; in [24], 2. Also, the co-IP/MS count in assay [25] is 14; in assay [26], 9.
In the case of “IgG control (Millipore Sigma 12-371) (antibody)”, the co-IP mass spectrometry count in assay [27] was 0; in assay [28], 5; in assay [29] it was 0; in [30] it was 11; in assay [31], 0; in assay [32] it was 0. Further, the co-IP mass spectrometry count in assay [33] turned out to be 0; in assay [34] it was 0; in [35], 0; in [36] it was 0; in assay [37], 0; in assay [38], 12.
